The target in the test is HLA-DQ8 molecule (DQA1*03:01-DQB1*03:02) (human). The test can be described thus: ProImmune REVEAL MHC-peptide binding assay.

In turn, EALYLVCGNAVEVLK [insulin-derived 15-mer …] registered a fold affinity against the reference peptide (T1D auto-antigen …) of 41 fold.
